According to patent US20170240619A1:

Key:
[1] = target: Biotinylated HER2 extracellular domain (human) (UniProt P04626); assay: SPR (BIAcore), biotinylated HER2 ECD on streptavidin chip, scFv injected, 1:1 Langmuir fit
[2] = target: HER2 on SK-BR-3 human breast cancer cells (human) (UniProt P04626); assay: flow cytometry on SK-BR-3 cells, human IgG1, anti-human IgG-FITC detection

Kd [1] [nM]	koff [1] [s⁻¹]	kon [1] [M⁻¹ s⁻¹]	EC50 [2] [mg/L]	Substance
7.6	0.00091	120000	–	4D5-b (4D5 scFv, VL 52D)
–	–	–	0.925	4D5 as human IgG1, VL 52D (WT/52D) (antibody)
